In experiment [1] the target is IL-18 polypeptide SEQ ID NO: 30 (E6K, V11I, C38A, K53A, T63A, C76A, C127A) (human) (UniProt Q14116). Nature of the experiment: cell-based or functional assay.
Experiment [2] addresses native IL-18 wild-type (SEQ ID NO: 1) (human) (UniProt Q14116). Description: cell-based or functional assay.

With “His-tag human IL-18 binding protein isoform a (from UniProt O95998 31-194)”, in experiment [1], the IC50 of IL-18BPa on IFNγ secretion, PD-1^negative Parental NK-92 came out at 110 nM and the IC50 of IL-18BPa on IFNγ secretion, PD-1^positive NK-92 worked out at 80.3 nM. In addition, in experiment [2], the IC50 of IL-18BPa on IFNγ secretion, PD-1^negative Parental NK-92 was determined as 2.97 nM and the IC50 of IL-18BPa on IFNγ secretion, PD-1^positive NK-92 is 2.67 nM.

(Values after patent US20250188166A1.)
